Experimental data from the nanobody polyreactivity screen of Harvey et al. (2022).

Assay: yeast display, Sf9 membrane polyspecificity reagent, FACS + sequencing; frameworks hold sequencing errors
Method in brief: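 Using colony PCR, genes from sorted yeast display clones were amplified, then sequenced on MiSeq at 2 × 250 and filtered by CDR length. The clones had been stained with 10% biotinylated, detergent-solubilized Sf9 membrane reagent for 1 hour at 4 °C and sorted by FACS into low and high (top ~1%) gates on anti-HA and streptavidin fluorescence. Polyreactivity labels come from the gate of origin.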

| Sequence | polyreactivity (PSR sort gate) |
| --- | --- |
| QVQLVESGGGIVQAGGSLRLSCAASGITFPFYTMGWYRQAPGKERELVADISSRGTSTYYADSVKGRFTISRDNAKYTVYLQMNSLNPEDTAVYYCKARATPQRAYDSWGQGTLVTVSS | high polyreactivity |
| QVQLVESGGGLVQAGGSLRLSCDASGSTFGPYTMGWYRQAPGKERELVATISSGGSTYYADSVKGRFTISRDNAKNTVYLQMNSLKPEETAVYYCAARYWSIYDYWGPGTQVTVSS | low polyreactivity |
| QVQLVESGGGLVQAGGSLRLSCAASGFIFSLYAMGWYRQAPGKERELVAAISKRGGSTNYADSVKGRFTISRDNAKNTVYLQMNSLKPEDTAVYYCAKARPGFLYDHWGQGTQVTVSS | high polyreactivity |
| QVQLVESGGCLVQAGGSLRLSCAASGRIFQGYAMAWYRQAPGKEREFVAAITLSGGSTYYADSVKGRFTISRDNAKNTVYLQMNSLKPEDTAVYYCNAYYPDEPSLDDYWGQGTQVTVSS | low polyreactivity |
| QVQLVESGGGLVQAGGSLRLSCAASGFIFHTNTMGWYRQAPGKERELVAAISSGGRTNYADSVKGRFTISRDNAKNTVYLQMNSLKPEDTAVYYCAARVGSGFDSWGQGTQVTVSS | high polyreactivity |
| QVQLVESGGGLVQAGGSLRLSCAASGSIFQWYAMGWYRQAPGKERELVAAINWSSGSTYYADSVKGRFTISRDIAKNTVYLQMNSLKPEETAVYYCAARIGYGTSYLRRIYYWGQGTQVTVSS | high polyreactivity |
| QVQLVESGGGLVQAGGSLRLSCAASGFTFQRYAMGWYRQAPGKERELVADISRSGGSTYYADSVKGRFTISRDNAKNTVYLQMNSLKPEDTAVYYCAAGYPGYDSYYKFYYWGQGTQVTVSS | high polyreactivity |
| QVQLVESGGGLVQAGGSLRLSCAASGRTFWYYGMGWYRQAPGKERELVAAISRSGGRTYYADSVKGRFTISRDNAKNTVYLQMNSLKPEDTAVYYCVASYRRTFDYWGHGTQVTVSS | high polyreactivity |
| QVHLVESGGGVLQAGVSLRLSCAASGFTFYGNAMGWYRQAAGKERELVAANSGRGGSTYYADSVKGRFTISRDNEKYTVYLHMNSLKPEDTAVYYCDIYVSWPLYYYWGQGTQVTVSS | low polyreactivity |
| QVQLVESGGRLVQAGGSLRLSCAASGRTFSFYAMGWYRQAPGQERELVAGIDWDDGSTSYADSVKGRFTISRDNAKNSVYLQMNSLKPEDTAVYYCAADIGYDDYNDYDYWGQGTQVTVSS | low polyreactivity |
| QVQLVESGGGLVQAGGSLRLSCAASGRTFFRYAMGWYRQAPGKERELVAVITRGGSTYYADSVKGRFTISRDNAKNTVYLQMNSLKPEDTAVYYCNADGRVQRKYDYWGQGTQVTVSS | high polyreactivity |
| QVQLVESGGGLVQAGGSLRFSCAASGSTFRKNAMGWYRQAPGKERELFASISISGGRTNYADSVKGRFTISRDHAKNTVYLQLNSLKPEDTAVYDCAATTSPRSARYYYWGQGTQVTVSS | high polyreactivity |
| QVQLVESGGGLVQAGGSLRLSCAASGSTFLPYVMGWYRQATGKERELVAAISRSGGRTYYADSVKGRFTISRDKAKNTVYLQMNRLKPEDTAVYYCNAVQRFYADYQPFAYWGQGTQLTVSS | high polyreactivity |
| QVQLVESGGGLVQAGGSLRLSCAAYGSIFRSYAMGWYRQAPGKERELVAAISSRYGSTYYADSVKGRFTISRDNAKNTVYLQMNSLKPEDTAVYYCGSQHRHSYGYWGQGTQVTVSS | high polyreactivity |
| QVQHVESGGGLVQAGRSLPLSCAASGSIFWDNALGWYRQATGKEMVLVAAITSCGDTTYYADSVKGRFTISRDNSKNTVYLQMNSLKPEDTAVYYCATDSNWYWGFNYWGQGTQVTVSS | low polyreactivity |
| QVQLVESGGGLVQAGGRLRLSCAASGRTFAVYDMGWYIQAPGKERELVAAITYGGGRTYYADSVKGRFTISRDYAKNTVYLQMISLKPEDTSVYYCAADYYGTDYDYWGQGTQVTVSS | low polyreactivity |
| QVQLVESGGGLVQAGGSLRLSCAASGFIFPSNSMGWYRQAPGKEREFVAAISSRGGSTTYADSVKGRFTISRDYAKNTVYLQMNSLKPEDTAVYYCARDWYYYPQYRQRYYYWGQGTQVTVSS | high polyreactivity |
